Laboratory results from US20200353078A1 (AstraZeneca / MedImmune, published 2020).

T1: Human IL-33 (Axxora/Adipogen AG-40B-0038) (human, UniProt O95760 112-270, limits assumed)
T1 sequence (looked up): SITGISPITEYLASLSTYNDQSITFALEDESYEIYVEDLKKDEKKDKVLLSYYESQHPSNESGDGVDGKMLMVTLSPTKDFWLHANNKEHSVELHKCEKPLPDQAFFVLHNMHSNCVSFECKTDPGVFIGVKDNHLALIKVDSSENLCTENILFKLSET

T2: Cynomolgus IL-33 Flag®His (cynomolgus monkey)
T2 construct: C-terminal FLAG 10xHis tag, E. coli; also called Mature Cynomolugus IL-33; cyno IL-33 FH
T2 chain: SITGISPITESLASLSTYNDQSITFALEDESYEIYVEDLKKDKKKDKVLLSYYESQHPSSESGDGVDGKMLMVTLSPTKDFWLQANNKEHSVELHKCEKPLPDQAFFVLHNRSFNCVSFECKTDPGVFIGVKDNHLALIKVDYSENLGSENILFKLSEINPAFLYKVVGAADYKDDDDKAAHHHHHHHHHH

T3: Human IL-33 Flag®His (human)
T3 construct: Mature IL-33 with C-terminal FLAG 10xHis tag, from E. coli; biotinylated via free cysteines where used biotinylated; also called Mature Human IL-33_FH; human IL-33 FH
T3 chain: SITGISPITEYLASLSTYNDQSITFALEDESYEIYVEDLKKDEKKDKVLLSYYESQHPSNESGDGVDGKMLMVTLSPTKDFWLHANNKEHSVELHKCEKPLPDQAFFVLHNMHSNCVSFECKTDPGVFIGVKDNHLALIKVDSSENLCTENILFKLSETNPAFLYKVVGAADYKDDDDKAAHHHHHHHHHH

T4: Mouse IL-33 Flag®His (mouse)
T4 construct: C-terminal FLAG 10xHis tag, E. coli; also called Mature Mouse IL-33_FH; mouse IL-33 FH
T4 chain: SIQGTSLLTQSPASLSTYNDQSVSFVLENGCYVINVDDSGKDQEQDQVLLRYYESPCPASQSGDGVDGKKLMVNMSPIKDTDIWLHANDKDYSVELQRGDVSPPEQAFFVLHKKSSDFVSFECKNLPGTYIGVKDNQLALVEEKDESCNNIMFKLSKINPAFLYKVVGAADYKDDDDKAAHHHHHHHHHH

T5: Human IL-33 (Axxora/Alexis ALX-522-098) (human, UniProt O95760 112-270)
T5 sequence (looked up): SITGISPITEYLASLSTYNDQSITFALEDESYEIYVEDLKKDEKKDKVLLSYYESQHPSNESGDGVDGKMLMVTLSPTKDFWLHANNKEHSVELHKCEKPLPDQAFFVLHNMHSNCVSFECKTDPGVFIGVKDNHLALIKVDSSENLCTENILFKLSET

T6: His10/Avi Human IL33-01 (human)
T6 construct: Wild type mature IL-33 with N-terminal 10xHis, Avitag and Factor Xa site; biotinylated by BirA on the Avitag where used biotinylated; reduced form unless treated; also called N-terminal His Avi IL-33; His-Avi human IL-33 wild type
T6 chain: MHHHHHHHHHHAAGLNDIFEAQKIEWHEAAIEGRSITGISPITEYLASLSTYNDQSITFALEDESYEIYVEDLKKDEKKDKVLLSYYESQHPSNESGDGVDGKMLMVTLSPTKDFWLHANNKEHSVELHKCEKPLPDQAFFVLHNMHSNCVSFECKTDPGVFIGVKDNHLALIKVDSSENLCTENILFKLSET

T7: His10/Avi Human IL33-11 (human)
T7 construct: C208S, C259S mutant (already in the entry), N-terminal His10/Avitag; also called His-Avi mutant IL-33; SCCS
T7 chain: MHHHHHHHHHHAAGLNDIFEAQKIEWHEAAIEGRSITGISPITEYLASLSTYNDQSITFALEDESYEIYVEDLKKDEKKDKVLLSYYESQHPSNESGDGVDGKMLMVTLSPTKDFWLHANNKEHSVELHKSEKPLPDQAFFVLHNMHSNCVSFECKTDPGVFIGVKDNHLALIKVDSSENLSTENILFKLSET

T8: His10/Avi Cyno IL-33 (cynomolgus monkey)
T8 construct: also called Cynomolgus 10His Avitag IL-33; biotinylated His Avi cynomolgus IL-33
T8 chain: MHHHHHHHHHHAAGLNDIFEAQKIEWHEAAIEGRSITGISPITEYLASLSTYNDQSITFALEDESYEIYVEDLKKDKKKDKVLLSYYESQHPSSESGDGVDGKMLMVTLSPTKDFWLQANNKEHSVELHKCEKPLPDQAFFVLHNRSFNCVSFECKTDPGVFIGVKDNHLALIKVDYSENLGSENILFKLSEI

T9: Full-length human IL-33 (amino acids 1-270), HEK293-EBNA cell lysate (human, UniProt O95760 1-270)
T9 sequence (looked up): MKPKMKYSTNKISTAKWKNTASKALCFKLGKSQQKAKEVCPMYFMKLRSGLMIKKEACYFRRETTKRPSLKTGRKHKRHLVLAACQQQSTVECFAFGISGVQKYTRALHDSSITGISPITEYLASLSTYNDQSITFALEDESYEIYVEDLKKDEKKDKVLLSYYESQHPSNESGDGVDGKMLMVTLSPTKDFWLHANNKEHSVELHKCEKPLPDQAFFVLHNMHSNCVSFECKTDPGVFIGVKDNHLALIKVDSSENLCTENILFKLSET


Columns and labels:
[1] = biological target: T1, Human IL-33 (Axxora/Adipogen …); assay: cell-based or functional assay
[2] = biological target: T2, Cynomolgus IL-33 Flag®His; assay: ELISA, biotinylated antigen on streptavidin plate, anti-human IgG HRP
Description: (§1) 96-well Greiner polypropylene plates (Greiner, 650201) were used for dilution preparation. Generally, each dilution was prepared in duplicate. IgG dilutions were allowed to block in PBS-M for 1 hour at room temperature before being used directly in ELISA experiments.
(§2) Streptavidin plates (Thermo Scientific, AB-1226) were coated with biotinylated antigen at 0.5 μg/ml in PBS and incubated overnight at 4° C. Plates were washed 3× with PBS and blocked with 300 μl/well blocking buffer (PBS-M) for 1 hour. Plates were washed 1× with PBS and blocked samples added, 50 μl/well for 1 hour at room temperature. […] Plates were washed 3× with PBS-T and developed with TMB, 50 μl/well (Sigma, T0440). The reaction was quenched with 50 μl/well 0.1M H2504 before reading on an EnVision™ plate reader, or similar equipment, at 450 nm.
(§3) Species cross-reactivity of anti-IL-33 antibodies was determined using a plate-based ELISA. Streptavidin plates (Thermo Scientific, AB-1226) were coated with biotinylated antigen at 0.5 μg/ml in PBS. Binding of purified IgG preparations was detected with anti-human IgG HRP (Sigma, A0170).

[3] = biological target: T3, Human IL-33 Flag®His; assay: as above
Description: as §1, §2, §3

[4] = biological target: T4, Mouse IL-33 Flag®His; assay: as above
Description: as §1, §2, §3

[5] = biological target: T5, Human IL-33 (Axxora/Alexis ALX-522-098); assay: cell-based or functional assay
[6] = biological target: T6, His10/Avi Human IL33-01; assay: HTRF epitope competition, scFv titrated; competitor DyLight labelled 33v20064 IgG
Description: (§4) This was followed by the addition of 2.5 microlitres of a solution containing 0.8 nM biotinylated human IL-33-01 combined with 0.75 nM streptavidin cryptate detection (Cisbio International, 610SAKLB) for the human assay or a solution containing 4 nM biotinylated cynomolgus IL-33 combined with 1.5 nM streptavidin cryptate detection (Cisbio International, 610SAKLB) for the cynomolgus assay. All dilutions were performed in assay buffer containing 0.8 M potassium fluoride (VWR, 26820.236) and 0.1% bovine serum albumin (BSA, PAA, K05-013) in Dulbeccos PBS (Invitrogen, 14190185). Assay plates were incubated for 1 hour at room temperature and time resolved fluorescence was read at 620 nm and 665 nm emission wavelengths using an EnVision plate reader (Perkin Elmer). Data were analysed by calculating the 665/620 nm ratio followed by the % Delta F values for each sample. The 665/620 nm ratio was used to correct for sample interference using Equation 1. The % Delta F for each sample was then calculated using Equation 2. The negative control (non-specific binding) was defined by replacing biotinylated IL-33 combined with streptavidin cryptate detection with streptavidin cryptate detection only. The % Delta F values were subsequently used to calculate % specific binding as described in Equation 3.
(§5) Unique scFv were expressed again in bacteria and purified by affinity chromatography (as described in WO01/66754). Purified anti-IL-33 antibody samples were tested for potency of inhibition by competing a dilution series of the purified preparation against DyLight labelled 33v20064 IgG or DyLight labelled 33_640027 IgG for binding to biotinylated His Avi IL33-01, biotinylated His Avi IL33-11 or biotinylated His Avi cynomolgus IL-33. Methods are as described in the previous section.

[7] = biological target: T7, His10/Avi Human IL33-11; assay: as above
Description: as §4, §5

[8] = biological target: T8, His10/Avi Cyno IL-33; assay: as above
Description: as §4, §5

[9] = biological target: T6, His10/Avi Human IL33-01; assay: HTRF epitope competition, scFv titrated; competitor DyLight labelled 33_640027 IgG
[10] = biological target: T8, His10/Avi Cyno IL-33; assay: as above
[11] = biological target: T6, His10/Avi Human IL33-01; assay: HTRF epitope competition, IgG titrated; competitor DyLight labelled 33_640117 IgG; overnight
Description: (§6) As the epitope competition assay utilising 33_640027 reached its limit of sensitivity, an assay using 33_640117 was used for testing purified scFv samples. The assay was essentially as described for the 33v20064 competition assay with the following modifications: 2.5 nM DyLight labelled 33_640117 was prepared and 2.5 microlitres added to the assay plates. This was followed by the addition of 2.5 microlitres of a solution containing 0.12 nM biotinylated human IL-33-01 combined with 0.75 nM streptavidin cryptate detection (Cisbio International, 610SAKLB) for the human assay or a solution containing 0.24 nM biotinylated cynomolgus IL-33 combined with 1.5 nM streptavidin cryptate detection (Cisbio International, 610SAKLB) for the cynomolgus assay. Fluorescence was read after one hour and overnight incubation.
(§7) The ability of anti-IL-33 antibodies to inhibit the binding of biotinylated His Avi human IL-33 or cynomolgus His Avi IL-33 to the DyLight labelled 33_640117 IgG was assessed in a biochemical HTRF® (Homogeneous Time-Resolved Fluorescence, Cisbio International) competition assays as described above.

[12] = biological target: T6, His10/Avi Human IL33-01; assay: HTRF epitope competition, IgG titrated; competitor DyLight labelled 33_640117 IgG; 1 hour
Description: as §6, §7

[13] = biological target: T8, His10/Avi Cyno IL-33; assay: as above
Description: as §6, §7

[14] = biological target: T9, Full-length human IL-33 (amino acids …); assay: cell-based or functional assay

Binder	IC50, Mast cell IL-6 production [1] [nM]	EC50 [2] [nM]	EC50 [3] [nM]	EC50 [4] [nM]	also measured
IL330149 IgG (antibody, V domains shown, IgG1 or IgG1-TM; also called IL33149) VH: EVQLLESGGGLVQPGGSLRLSCAASGFTFSSYAMSWVRQAPGKGLEWVSAISGSGGSTYYADSVKGRFTISRDNSKNTLYLQMNSLRAEDTAVYYCVRTLAYSTSWFFDYWGRGTLVTVSS VL: SYELTQPPAVSVSPGQTARITCSGDALPKKYAYWYQQKSGQAPVLVIYEDAKRPSGIPERFSGSSSGTMATLTVSGAQVEDEADYYCYSTDSSGPVFGGGTKLTVL	298	0.35	0.23	0.17	–
IL330099 IgG (antibody, V domains shown, IgG1 or IgG1-TM) VH: QVQLQQSGAEVKKPGASVKVSCKASGYTFTSFYMNWVRQAPGQGLEWMGIISPRGGTTSYAQNFQGRVTMTRDTSTSTVYMELSGLRSDDTAVYYCATESFYYGSGTYSGDYYLYSGMADWGKGTLVTVSS VL: SSELTQDPAVSAALGQTVRITCQGDSLRSYYASWYQQKPGQAPVLVIYGKNDRPSGIPDRFSGSSSGNTASLTITGAQAEDEADYYCNSRDSSGNHVVFGGGTKLTVL	1220	0.35	0.4	0.38	–
IL330107 IgG (antibody, V domains shown, IgG1 or IgG1-TM) VH: QMQLVQSGGGVVQPGGSLRLSCAASGFTFSSYAMSWVRQAPGKGLEWVSAISGSGGSTYYADSVKGRFTISRDNSKNTLYLQMNSLRAEDTAVYYCAKPFPSYWYFDLWGKGTLVTVSS VL: SYVLTQPPSVSVSPGQTARITCSGDALPKQYAYWYQQKPGQAPVLVIYKDSERPSGIPERFSGSSSGTTVTLTISGVQAEDEADYYCQSADSSGTYRVFGGGTQLTVL	–	1.09	0.86	0.83	IC50 (geomean), Mast cell IL-6 production [1]: 283 nM; IC50, TF-1 proliferation [5]: 94 nM
33_640047 scFv (scFv, V domains shown, Single chain Fv; also called ZZ1F7P-E01) VH: EVQLLESGGGLVQPGGSLRLSCAASGFTFSSYAMSWVRQAPGKGLEWVSAISGSGGSTYYADSVKGRFTISRDNSKNTLYLQMNSLRAEDTAVYYCTRLKFMQLWGGGLRYPFGYWGQGTMVTVSS VL: SYVLTQPPSVSVSPGQTASITCSGERMGDKYAAWYQQKPGQSPVLVIYQDTKRPSGIPERFSGSNSGNTATLTISGTQAMDEADYYCQVWDSSTGVFGGGTKVTVL	–	–	–	–	IC50 [6]: 0.4 nM; IC50 [7]: 0.5 nM; IC50 [8]: 2.7 nM; IC50 [9]: 2.3 nM; IC50 [10]: 8.8 nM
33v20064 IgG1 (antibody, V domains shown, IgG1; also called ZZ1EBX-E05) VH: not shown VL: LPVLTQPPSVSVSPGQKASITCSGERMGDKYAAWYQQKPGQSPILVIYQDTKRPSGIPERFSGSNSGNTATLTISGTQDMDEADYYCQVWDSSTGVFGGGTKVTVL	–	–	–	–	IC50 [11]: 689 nM; IC50 [12]: 150 nM; IC50 [13]: 788 nM; IC50, Huvec IL-8 assay vs. full length IL-33 cell lysate [14]: 185 nM
